For this experiment, the target named is ChuX. Put plainly: AUC.

The substance ChuX (natural protein) returned a percent of the sample as dimer (2.9 S species) of 81.3% and a percent of the sample as tetramer (4.5 S species) of 10.8%.

These data come from paper PMC7189753.
